Reference: patent US20090253622A1, “USE OF TLR3 AGONISTS FOR THE TREATMENT OF NEURODEGENERATIVE DISORDERS” (Nederlandse Organisatie voor toegepast - …, priority 2006, published 2009)
Entries after “also recorded” stand apart in the source; their conditions may differ.

Legend:
Assay type in all cases: cell-based
[1] = target: T1, TLR4 (Homo sapiens, UniProt O00206+Q9Y6Y9); assay: HEK293 transfectant cells, TLR4 activation; conditions: at levels of at least 50 μg/mL
T1 construct: expressed in transfected cells; host or cells: HEK293
T1 sequence (O00206 24-839, species assumed): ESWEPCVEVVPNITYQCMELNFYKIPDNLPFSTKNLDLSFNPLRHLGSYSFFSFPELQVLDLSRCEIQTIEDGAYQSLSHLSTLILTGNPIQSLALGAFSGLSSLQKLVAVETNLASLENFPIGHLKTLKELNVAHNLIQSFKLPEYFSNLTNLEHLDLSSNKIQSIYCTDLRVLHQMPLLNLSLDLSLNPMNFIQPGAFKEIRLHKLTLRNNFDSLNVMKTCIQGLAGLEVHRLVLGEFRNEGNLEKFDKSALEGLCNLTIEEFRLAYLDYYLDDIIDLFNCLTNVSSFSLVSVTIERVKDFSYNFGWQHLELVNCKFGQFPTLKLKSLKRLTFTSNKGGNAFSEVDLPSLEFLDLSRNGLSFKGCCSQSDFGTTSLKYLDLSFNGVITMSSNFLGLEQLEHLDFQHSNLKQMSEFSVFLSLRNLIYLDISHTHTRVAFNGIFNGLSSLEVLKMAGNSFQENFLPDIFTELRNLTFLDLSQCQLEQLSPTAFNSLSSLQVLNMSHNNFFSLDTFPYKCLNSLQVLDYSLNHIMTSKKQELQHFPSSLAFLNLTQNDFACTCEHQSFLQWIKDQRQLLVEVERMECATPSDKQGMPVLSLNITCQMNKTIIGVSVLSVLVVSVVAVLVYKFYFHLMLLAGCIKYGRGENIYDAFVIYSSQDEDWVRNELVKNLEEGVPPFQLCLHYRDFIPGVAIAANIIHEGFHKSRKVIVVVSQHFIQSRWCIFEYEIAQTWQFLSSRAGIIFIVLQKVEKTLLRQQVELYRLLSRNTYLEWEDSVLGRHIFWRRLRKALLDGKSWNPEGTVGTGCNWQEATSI
T1 sequence (Q9Y6Y9 17-160 limits assumed, species assumed): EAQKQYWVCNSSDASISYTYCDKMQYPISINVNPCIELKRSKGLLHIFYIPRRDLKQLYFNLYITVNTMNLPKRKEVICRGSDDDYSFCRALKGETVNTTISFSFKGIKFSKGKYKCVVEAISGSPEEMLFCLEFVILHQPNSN
Procedure: Additional control experiments using murine astrocytes or transfected HEK293 cells were performed essentially as described previously by several other research groups.

[2] = system: TLR3; assay: IL-6 release by astrocytes from wild-type mice (ELISA); conditions: wild-type mouse astrocytes, 48 h
Procedure: (§1) Astrocytes were cultured in poly L-lysine coated 96 well-flat-bottom plates at 1×10^4 cells per well in 100 l DMEM/HAM-F10 medium containing 10% FCS and antibiotic supplements for 24 h to obtain post-confluent cultures. Recombinant human stathmin was next added to astrocytes, and parallel control stimuli were performed with either poly I:C, an established TLR3 agonist, or ultrapure lipopolysaccharides, established TLR4 agonists. After addition of these stimuli astrocytes were incubated for another 48 h. Astrocyte culture supernatants were subsequently collected and using a commercial ELISA kit levels of IL-6 were determined, as a marker for TLR-mediated activation of murine astrocytes.

[3] = system: astrocytes from TLR3-deficient mice; assay: IL-6 release by astrocytes from TLR3-deficient mice (ELISA); conditions: TLR3-deficient mouse astrocytes, 48 h
Procedure: as §1

[4] = system: human adult astrocytes; assay: cDNA array profiling of cytokine, chemokine and growth factor genes in human adult astrocytes
Procedure: Adult human astrocytes from post-mortem subcortical white matter samples were isolated and cultured as previously described (Bsibsi et al., J Neuropath Exp Neurol 61:1013-1021 [2002]). […] When indicated astrocytes were stimulated with 50 μg/mL poly I:C (Amersham Pharmacia Biotech, Piscataway, N.J.) or 200 ng/mL LPS (Sigma-Aldrich, Steinheim, Germany) to activate TLR3 and TLR4, respectively. […] It should be noted that contaminants in the commercial LPS preparation could possibly lead to some level of TLR2 activation in addition to TLR4 by the LPS preparation used but not of TLR3. When stimulated with cytokines, astrocytes were supplied with TNF-α, IFN-γ, IL-1β (each at 500 U/mL), IL-4 (at 250 U/mL), IL-6 (at 200 U/mL), IL-12 (at 50 ng/mL), IL-10 (at 20 ng/mL) and TGF-β (at 12.5 ng/mL) (PeproTech, Rocky Hill, N.Y.). […] Endothelial cells (UVEC) were isolated from umbillical cords and cultured on gelatin-coated dishes in M199 supplemented with 20 nM HEPES, 10% human serum, 10% heat-inactivated NBCS, 150 mg/mL ECGF, 5 U/mL heparin, 100 IU/mL penicillin and […] streptomycin.
Analysis of the mRNA profile of astrocytes was performed by hybrid selection of ^32P-labeled cDNA on Clontech human cytokine/chemokine Atlas® arrays as previous described (Meeuwsen et al., Glia 43:243-253 [2003]). Hybridization signals for each of the 268 cytokine, chemokine and growth factor (receptor) genes were calculated as the mean of duplicate measurements, corrected for background intensity and quantified using software provided by the manufacturer. Relative expression was calculated by dividing these hybridization signals by the mean signal for all nine housekeeping reference genes on the corresponding array.
Gene profiling was performed using astrocytes from four different control donors.
Astrocytes were isolated from post mortem human brain tissue samples and cultured under conditions as described elsewhere in this application. One part of the culture was stimulated with 50 μg/ml stathmin, the second with 50 μg/ml poly I:C and a third was left untreated to served as a reference control. Following another 48 h RNA was isolated from each culture and ^32P-labeled cDNA was prepared by reverse transcription. Subsequent hybrid selection of these ^32P-labeled cDNA samples was performed on Clontech Atlas® arrays containing selective probes for 268 cytokines, chemokines and growth factors, and various receptors for these mediators. All hybridization signals were calculated as the mean of duplicate measurements, corrected for background intensity and quantified using software provided by the manufacturer. Relative signal strength was next calculated by dividing these averaged hybridization signals by the mean signal for all nine housekeeping reference genes that were also present on each array as a reference.

[5] = system: TLR3; assay: CXCL8 release by cultured human astrocytes (ELISA)
Procedure: Cos-7 cells (25,000 cells per well in 96-well plates) were transfected for 5 h with 768 pools of cDNA derived from human brain tumours (5 pooled tumours including meningioma, oligodendroglioma, astrocytoma grades II and IV, and medulloblastoma; NCI CGAP Brn35; Invitrogen) using lipofectamine, after which cells were thoroughly washed. Transfection with green-fluorescent protein-encoding cDNA was used as an internal control for transfection efficiencies. After continued culture of the transfected cells for 48 h, 75 μL of each culture supernatant was harvested and added to cultured human astrocytes seeded at 1,000 cells per well in 75 μL. After 48 h of culture, supernatants were harvested and evaluated for CXCL8 release using ELISA. Stimulation of astrocytes with poly I:C served as positive controls for CXCL8 release in all cases, non-transfected Cos 7 culture supernatants as negative controls.
Purified recombinant stathmin was exposed to two different conditions that differentially affect the extent of helix formation within the protein chain. One part of the protein preparation was exposed to 5% trifluoroacetic acid (TFA) in water for 1 h at 37° C., strongly acidic conditions that tend to disrupt an alpha helix. In parallel, another part was exposed for 1 h at 37° C. to 5% of the helix-promoting solvent trifluoroethanol (TFE) in phosphate-buffered saline (PBS). After exposure to these different conditions, both protein samples were extensively dialysed for 48 h against several changes of PBS. Next, the samples were analyzed by […] circular dichroism spectroscopy that allows calculation of helical content on the basis of elipticity in the absorption of circularly polarized light. In both cases, another part of the dialyzed sample was tested in parallel for induction of TLR3-mediated release of CXCL8 (IL-8) in human astrocytes as described elsewhere in this application.

[6] = system: immature human plasmacytoid dendritic cells (pre-DC); assay: Antibody-array profiling of 40 cytokines and chemokines in human pre-DC supernatants; conditions: 50 μg/ml, 48 h
Procedure: To examine the effects of stathmin on the maturation and cytokine production of immature human plasmacytoid dendritic cells (pre-DC), such pre-DC were generated from samples of peripheral blood mononuclear cells by maturation of purified CD14^+ monocytes using GM-CSF and IL-4. The cells were subsequently exposed to 50 μg/ml stathmin and after 48 h, culture supernatants were collected and the accumulation of 40 different cytokines ands chemokines was evaluated by antibody-array profiling using a commercially available antibody array.

[7] = system: human microglia; assay: CXCL8 accumulation in cultures of human microglia (ELISA); conditions: microglia from gray or white matter, 24 h
Procedure: Using either gray matter samples or white matter samples of post mortem adult human brains collected within 9 h after death, several cultures of microglia were produced as previously described. Microglia were subsequently stimulated with different TLR agonists and after 24 h accumulation of CXCL8 in the culture medium was quantified using a commercial ELISA assay, as a measure of TLR-mediated activation.

B1: stathmin: cytosolic phosphoprotein of 149 amino acids (SEQ ID NO: 1); purified recombinant human stathmin from a commercial source (protein)
chain: MASSDIQVKELEKRASGQAFELILSPRSKESVPEFPLSPPKKKDFSLEEIQKKLEAAEERRKSHEAEVLKQLAEKREHEKEVLQKAIEENNNFSKMAEEKITHKMEANKENREAQMAAKLERLREKDKHIEEVRKNKESKDPADETEAD
modifications: Human; (44)..(138) Stathmin-like alpha helix domain
notes: purified recombinant human stathmin from a commercial source
- response of HEK293 transfectant cells via TLR4 [1]: does not contain any endotoxin contaminants that trigger responses
- IL-6 release [2]: dose-dependent IL-6 induction; also recorded: marked IL-6 release
- IL-6 release [3]: completely absent; also recorded: fully abrogated
- change in expression of genes encoding immune mediators and growth factors ([4]; 50 μg/ml, 48 h): comprehensive and marked change in expression
- stathmin-induced mediators ([4]; astrocytes (TLR3 on the cell surface), qualitative summary): CNTF, LIF; also recorded: TSG-6, IL-9, IL10, IL-11, IL-5; also recorded: VEGF, VEGF-C, CXCL8; also recorded: CCL2, CCL3, CXCL9
- astrocyte CXCL8 response, dose dependence ([5]; at 100 μg/mL): still not maximal
- CXCL8 release by cultured human astrocytes (in words) ([5]; doses between 5 and 100 μg/mL, four donors): marked CXCL8 release
- stathmin-induced response under TLR3-directed small interfering RNA ([5]; human astrocytes, three TLR3 siRNAs): largely—in one case completely—inhibited
- reduction of levels of the p70 subunit of IL-12 [6]: two-fold
- CXCL8 induction ratio ([6]; vs untreated control): > 1.5
- IL-10 induction ratio ([6]; vs untreated control): > 1.5
- MCP-1 induction ratio ([6]; vs untreated control): > 1.5
- p40 subunit of IL-12 induction ratio ([6]; vs untreated control): > 1.5
- CXCL8 accumulation in the culture medium [7]: enhanced CXCL8 accumulation
